This note sets out measurements from US20220363757A1 (SYMPHOGEN A S, published 2022).

What all share (assay): SPR, Fab over captured mutant LAG-3-Fc;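 further: fc fusion variants captured on anti-human IgG Fc sensor, Fab injected with association then dissociation phases, KD obtained from Langmuir one-to-one fit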
In general terms: Surface plasmon resonance follows binding to a sensor surface in real time, without labels.

For assay [1], the target named is T1, human LAG-3 domain 1-2 Fc fusion, point mutation #41 P94A (human, UniProt P18627 23-266).
T1 construct: not shown: human IgG1 Fc, AA P101-K330
T1 sequence: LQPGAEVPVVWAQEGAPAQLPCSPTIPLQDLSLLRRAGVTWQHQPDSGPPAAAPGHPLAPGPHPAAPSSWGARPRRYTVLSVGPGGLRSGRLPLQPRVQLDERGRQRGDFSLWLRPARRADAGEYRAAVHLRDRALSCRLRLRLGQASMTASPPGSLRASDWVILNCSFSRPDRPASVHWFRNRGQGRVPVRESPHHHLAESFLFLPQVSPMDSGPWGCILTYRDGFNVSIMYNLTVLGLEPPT

In assay [2] the target is T2, human LAG-3 domain 1-2 Fc fusion, point mutation #49 G105A (human, UniProt P18627 23-266).
T2 construct: not shown: human IgG1 Fc, AA P101-K330
T2 sequence: T1 sequence with A72P, G83A

The target of assay [3] is T3, human LAG-3 domain 1-2 Fc fusion, point mutation #35 A88S (human, UniProt P18627 23-266).
T3 construct: not shown: human IgG1 Fc, AA P101-K330
T3 sequence: T1 sequence with A66S, A72P

For assay [4], the target named is T4, human LAG-3 domain 1-2 Fc fusion, point mutation #70 G130A (human, UniProt P18627 23-266).
T4 construct: not shown: human IgG1 Fc, AA P101-K330
T4 sequence: T1 sequence with A72P, G108A

The target in assay [5] is T5, human LAG-3 domain 1-2 Fc fusion, point mutation #2 Q41A (human, UniProt P18627 23-266).
T5 construct: not shown: human IgG1 Fc, AA P101-K330
T5 sequence: T1 sequence with Q19A, A72P

For assay [6], the target named is T6, human LAG-3 domain 1-2 Fc fusion, point mutation #51 G107A (human, UniProt P18627 23-266).
T6 construct: not shown: human IgG1 Fc, AA P101-K330
T6 sequence: T1 sequence with A72P, G85A

The target in assay [7] is T7, human LAG-3 domain 1-2 Fc fusion, point mutation #22 A75S (human, UniProt P18627 23-266).
T7 construct: not shown: human IgG1 Fc, AA P101-K330
T7 sequence: T1 sequence with A53S, A72P

Assay [8] deals with T8, human LAG-3 domain 1-2 Fc fusion, point mutation #60 P118A (human, UniProt P18627 23-266).
T8 construct: not shown: human IgG1 Fc, AA P101-K330
T8 sequence: T1 sequence with A72P, P96A

Assay [9] addresses T9, human LAG-3 domain 1-2 Fc fusion, point mutation #20 A73S (human, UniProt P18627 23-266).
T9 construct: not shown: human IgG1 Fc, AA P101-K330
T9 sequence: T1 sequence with A51S, A72P

Residue numbers refer to the chain shown, from its start.

B1: Fab fragment of antibody 15532 (Fab, V domains shown, not shown: a dimerising Fc or GST)
VH: QVQLQQWGAGLLRPSETLSLTCAVYGESFSGYYWNWIRQPPGKGLEWIGEINHSGSTNYNPSLKSRVTISVDTSKTQFSLKLSSVTAADTAVYYCARGWDLLDWNDYWNEYWGQGTLVTVSS
VL: EIVLTQSPATLSLSPGERATLSCRASQSVSSYLAWYQQKPGQAPRLLIYDASNRATGIPARFSGSGSGTDFTLTISSLEPEDFAVYYCQQRSNWPLTFGGGTKVEIKR
notes: monomeric Fab made by GingisKHAN digestion of the IgG1
As for B1, the “KD mutant/KD wild type” value was found to be 0.8 fold in [1]; 1.1 fold in [2]; 3.7 fold in assay [3]; 4.4 fold in assay [4]; 3.4 fold in assay [5]; 2.1 fold in [6]. The “KD mutant/KD wild type” value in assay [7] amounted to 0.9 fold; in assay [8] it was 0.7 fold; in assay [9], 0.7 fold.

B2: Fab fragment of antibody 15431 (Fab, V domains shown, not shown: a dimerising Fc or GST)
VH: QVQLQQSGPGLVKPSQTLSLTCAISGDSVSSNSAAWNWIRQSPSRGLEWLGRTYYRSKWYNDYAVSVKSRITINPDTSKNQFSLQLNSVTPEDTAVYYCARDDDWNDFDYWGQGTLVTVSS
VL: B1 VL
notes: as for B1
In the case of B2, the binding result in assay [1], in [4], in assay [5] and in assay [6] was “no binding (tested: 300 nM)” each time. Moreover, the “KD mutant/KD wild type” value in [2] came out at 0.4 fold; in [3], 0.6 fold; in [7], 0.8 fold; in assay [8] it was 1 fold; in [9], 0.6 fold.

B3: Fab fragment of antibody 15572 (Fab, V domains shown, not shown: a dimerising Fc or GST)
VH: QLQLQESGPGLVKPSETLSLTCTVSGDSISSSSYYWGWIRQPPGKGLEWIGSIFYSGNTYYNPSLKSRVTISVDTSKNQFSLKLSSVTAADTAVYYCAREDDFLTDYYGAFDIWGQGTMVTVSS
VL: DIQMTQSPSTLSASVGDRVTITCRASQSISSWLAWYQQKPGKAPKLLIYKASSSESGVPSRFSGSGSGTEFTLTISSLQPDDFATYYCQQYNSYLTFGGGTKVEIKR
notes: as for B1
B3: the “KD mutant/KD wild type” value in [1] is 0.6 fold; in [2], 0.4 fold; in assay [3] it was 0.6 fold; in assay [7], 0.7 fold; in assay [8] it was 0.9 fold; in assay [9], 0.6 fold. Besides, the binding result in assay [4], in assay [5] and in assay [6] was “no binding (tested: 300 nM)” each time.

B4: Fab fragment of antibody 15011 (Fab, V domains shown, not shown: a dimerising Fc or GST)
VH: EVQLLESGGGLVQPGGSLRLSCAASGFDFRSYAMMWVRQAPGKGLEWVGGINGEVGGSNTYYAPAVKGRATISRDNSKNTLYLQMNSLRAEDTAVYYCVKGAGACGICNDDIDAWGQGTLVTVSS
VL: SYELTQDPAVSVALGQTVRITCSGAGSYAGSYYYGWHQQKPGQAPVTVIYDNDKRPSNIPDRFSGSSSGNTASLTITGAQAEDEADYYCGSTNDNDDGGLFGSGTKVTVLG
notes: as for B1
As to B4, the “KD mutant/KD wild type” value in assay [1] was 0.7 fold; in assay [2], 1.6 fold; in assay [3] it was 0.9 fold; in assay [4], 0.6 fold; in assay [5] it was 0.7 fold; in [6], 5.7 fold. The “KD mutant/KD wild type” value in assay [7] was found to be 0.8 fold; in assay [8], 1.2 fold; in [9] it was 0.7 fold.
